Like-named read-outs stand apart in the source and are kept apart here.
Key:
SMN protein = SMN protein levels by Western blotting in tissues of severe SMA mice; format: in vivo, mouse
Description: To evaluate the change of FL-SMN2 expression relative to Δ7 SMN2 transcripts, we used real-time quantitative PCR (RT-qPCR) at PD7; the mice were treated with DG9-PMO at PD0. In both doses, DG9-PMO treatment led to a 4- to 30-fold higher FL-SMN2 expression than NT control in both peripheral and CNS tissues (Figure 2A and Supplemental Figure 3A). It also led to a ~5-fold increase in FL-SMN2 expression when compared with unconjugated PMO, MOE, and R6G-PMO treatments in the majority of the tissues (Figure 2A, Supplemental Figure 3A, and Supplemental Figure 1F). […] SMN levels were higher in CNS tissues in the DG9-PMO–treated than MOE-treated mice, though no statistical significance was seen. […] SMN levels were similar in DG9-PMO and MOE in the tissues collected from mice at PD30.
Total protein was extracted from frozen tissues harvested at PD7 or PD30 by using RIPA buffer (MilliporeSigma) with cOmplete, Mini, EDTA-free protease inhibitor cocktail (MilliporeSigma). The protein concentration was quantified using the Pierce BCA Protein Assay Kit (Thermo Fisher Scientific). […] The bands were detected using the Amersham ECL Select Western Blotting Detection Kit (GE Healthcare) and visualized by the ChemiDoc Touch Imaging system (Bio-Rad). […]

severe SMA mouse model = assay: Righting reflex test; format: in vivo; conditions: 40 mg/kg s.c. at PD0, compared with the other groups
Source text: To evaluate the effects of systemic DG9-PMO treatment on muscle strength and the function of motor neurons, we used several functional tests and compared motor function in the treated and NT mice at various time points. We performed the hind limb suspension (HLS) assay and the righting reflex test during the early weeks of life. […] It should be noted that the results beyond PD12 are biased, as only the healthiest unconjugated PMO–, MOE-, and R6G-PMO–treated mice survived to these time points.
This spontaneous ability of the mice to right themselves up was tested from PD2 until the weaning stage PD20. The neonates were placed on their backs, and the time taken to reposition and place all 4 paws on the ground was noted. The recording time was a maximum of 60 seconds. Each neonate underwent 3 trials, with a resting period of at least 10 minutes between trials. The data are expressed as the mean time to complete the righting reflex test ± SEM.

CD68+ macrophages = assay: CD68+ macrophage detection in quadriceps muscle; format: in vivo, mouse; conditions: 40 mg/kg s.c. at PD0, quadriceps muscle sections at PD7
Source text: Peptides can typically pose as antigens, leading to immune reactions. Therefore, we examined the susceptibility of DG9-PMO to cause immune activation at an early neonatal stage, by looking at CD68^+ cells, indicative of circulating and tissue macrophages, in the quadriceps muscle sections at PD7 (Supplemental Figure 9, A and B). […] The apparent reduction in circulating macrophages following DG9-PMO treatment is likely due to amelioration of the atrophic musculature, which would compensate for any elevation seen from the treatment itself.
Cryosections (7 μm) of the quadriceps muscle were fixed with 4% PFA. The sections were incubated with rat anti-mouse CD68 antibody (MCA1957T, Bio-Rad). The number of CD68^+ cells was counted and averaged from at least 5 sections per sample at random intervals at 20× original magnification.

[1] = Hybridization-based ELISA, PMO concentration in tissues of severe SMA mice; format: in vivo; conditions: mouse, sc, 40 mg/kg s.c. at PD0, PD7 mice
Description: To determine the effects of DG9 peptide in increasing PMO uptake, we evaluated the biodistribution of unconjugated PMO and DG9-PMO in the peripheral and CNS tissues. We used a well-established hybridization-based ELISA designed specifically to detect the PMO to compare the concentration of DG9-PMO and unconjugated PMO in the tissues of treated PD7 mice ([51]).
ELISA was performed as described previously ([51], [69]). In brief, protein was extracted from frozen tissue sections (~20 μm) using RIPA buffer with cOmplete, Mini, EDTA-free protease inhibitor cocktail. The probes (Integrated DNA Technologies) were designed complementary to the PMO sequence with phosphorothioated backbones at the 5′ and 3′ ends. The 5′ and 3′ ends were labeled with digoxigenin and biotin, respectively. The tissue lysates (0.02 mg/mL protein concentration) were pretreated with 2.5 mg/mL trypsin containing 10 mM CaCl2 at 37°C overnight to digest the DG9 peptide. The probes were added to the samples and allowed to hybridize at 37°C for 30 minutes. Following the probe-PMO hybridization, the hybridized mixtures were added to Pierce NeutrAvidin Coated 96-Well Plates, Black (Thermo Fisher Scientific), to allow avidin-biotin interaction between the plate and the probes. The unhybridized probes were digested using micrococcal nuclease enzyme at 0.1 gel unit/μL (New England Biolabs). This was followed by the addition of an anti-digoxigenin antibody conjugated with ALP 1:5,000 (11093274910, Roche Applied Sciences). Attophos AP Fluorescent Substrate (Promega) was added to the PMO/DG9-PMO probes, and fluorescence was detected at 444 nm excitation and 555 nm emission by using a monochromator SpectraMax M3 plate reader (Molecular Devices).

SMILES: CC(=O)N[C@@H](Cc1ccc(O)cc1)C(=O)N[C@@H](C)C(=O)N[C@H](CCCNC(=N)N)C(=O)N[C@H](C(=O)N[C@@H](CCCNC(=N)N)C(=O)N[C@@H](CCCNC(=N)N)C(=O)N[C@H](CCCNC(=N)N)C(=O)NCC(=O)N1CCC[C@H]1C(=O)N[C@@H](CCCNC(=N)N)C(=O)NCC(=O)N[C@@H](Cc1ccc(O)cc1)C(=O)N[C@@H](C)C(=O)N[C@H](CCCNC(=N)N)C(=O)N[C@H](C(=O)N[C@@H](CCCNC(=N)N)C(=O)N[C@@H](CCCNC(=N)N)C(=O)N[C@H](CCCNC(=N)N)C(=O)NCC(=O)N1CCC[C@H]1C(=O)N[C@@H](CCCNC(=N)N)C(=O)N[C@H](CCCNC(=N)N)C(=O)N1C[C@@H](COP(=O)(N(C)C)N2C[C@@H](COP(=O)(N(C)C)N3C[C@@H](COP(=O)(N(C)C)N4C[C@@H](COP(=O)(N(C)C)N5C[C@@H](COP(=O)(N(C)C)N6C[C@@H](COP(=O)(N(C)C)N7C[C@@H](COP(=O)(N(C)C)N8C[C@@H](COP(=O)(N(C)C)N9C[C@@H](COP(=O)(N(C)C)N%10C[C@@H](COP(=O)(N(C)C)N%11C[C@@H](COP(=O)(N(C)C)N%12C[C@@H](COP(=O)(N(C)C)N%13C[C@@H](COP(=O)(N(C)C)N%14C[C@@H](COP(=O)(N(C)C)N%15C[C@@H](COP(=O)(N(C)C)N%16C[C@@H](COP(=O)(N(C)C)N%17C[C@@H](COP(=O)(N(C)C)N%18C[C@@H](COP(=O)(N(C)C)N%19CCC(C(N)=O)CC%19)O[C@@H](n%19cc(C)c(=O)[nH]c%19=O)C%18)O[C@@H](n%18ccc(N)nc%18=O)C%17)O[C@@H](n%17cnc%18c(N)ncnc%18%17)C%16)O[C@@H](n%16ccc(N)nc%16=O)C%15)O[C@@H](n%15cc(C)c(=O)[nH]c%15=O)C%14)O[C@@H](n%14cc(C)c(=O)[nH]c%14=O)C%13)O[C@@H](n%13cc(C)c(=O)[nH]c%13=O)C%12)O[C@@H](n%12ccc(N)nc%12=O)C%11)O[C@@H](n%11cnc%12c(N)ncnc%12%11)C%10)O[C@@H](n%10cc(C)c(=O)[nH]c%10=O)C9)O[C@@H](n9cnc%10c(N)ncnc%109)C8)O[C@@H](n8cnc9c(N)ncnc98)C7)O[C@@H](n7cc(C)c(=O)[nH]c7=O)C6)O[C@@H](n6cnc7c(=O)[nH]c(N)nc76)C5)O[C@@H](n5ccc(N)nc5=O)C4)O[C@@H](n4cc(C)c(=O)[nH]c4=O)C3)O[C@@H](n3cnc4c(=O)[nH]c(N)nc43)C2)O[C@@H](n2cnc3c(=O)[nH]c(N)nc32)C1)C(C)C)C(C)C (stereo partly shown) [DG9-PMO]
- SMN expression at PD30 (Western blotting) (SMN protein; 40 mg/kg s.c. at PD0, tissues at PD30): sustained levels of SMN expression at PD30
- SMN protein levels (Western blotting) (SMN protein; s.c. at PD0, tissues at PD7, relative to β-tubulin): increased SMN protein levels in both the peripheral and CNS tissues
- time to right (righting reflex) (severe SMA mouse model): significantly shorter time to right themselves on their paws between PD6 and PD10
- number of CD68+ macrophages compared with the Hets (CD68+ macrophages): no significant difference
- level at time molar at 7 days after dosing (PD7) ([1]; brain, n = 5, read-out: average AO detection, brain): 8.36 nM
- level at time molar at 7 days after dosing (PD7) ([1]; heart, n = 4, read-out: average AO detection, heart): 8.89 nM
- level at time molar at 7 days after dosing (PD7) ([1]; kidney, n = 6, read-out: average AO detection, kidney): 20000 nM
- level at time molar at 7 days after dosing (PD7) ([1]; liver, n = 5, read-out: average AO detection, liver): 200000 nM
- level at time molar at 7 days after dosing (PD7) ([1]; quadriceps muscle, n = 5, read-out: average AO detection, quadriceps muscle): 12.2 nM
- level at time molar at 7 days after dosing (PD7) ([1]; spinal cord, n = 4, read-out: average AO detection, spinal cord): 13.9 nM
